{"source": "patent US12534541B2", "about": "“Anti-PTK7 antibody and uses thereof” (MABCARE THERAPEUTICS, priority 2023, dated 2026)", "key": {"[1]": {"experiment": "Size exclusion chromatography (SEC) for the degree of aggregation", "format": "physicochemical", "conditions": "integral analysis, product after preparation", "procedure": "(§1) Activated charcoal powder (30 mg of powder per ml of liquid) was then added to the collection solution, which was suspended for 2 h at room temperature, centrifuged, and sterilized using a 0.22 μm filter membrane, and the activated charcoal particles were removed at the same time. The resulting product was calculated by UV for its concentration and DAR value, detected by hydrophobic chromatography (HIC) for product homogeneity, and detected by size exclusion chromatography (SEC) for the degree of aggregation. The products were placed in a refrigerator at −80° C. for cryopreservation.\nas §1, with “At the end of the reaction, the coupling reaction mixture was immediately desalted and exchanged with histidine-acetic acid/NaCl buffer using a desalting column. Activated” for “Activated”, “product was” for “products were”, “cryopreservation. […]” for “cryopreservation.”"}, "[2]": {"system": "lung squamous cell carcinoma PDX LD1-0025-200615", "experiment": "In vivo anti-tumor activity against human lung squamous cell carcinoma PDX LD1-0025-200615", "conditions": "NU/NU mice, i.v. 5 mg/kg, once a week, 2 doses, vs negative control", "procedure": "(§2) 6-week-old NU/NU mice, female, weighing 18-21 g, were purchased from Beijing Vital River Laboratory Animal Technology Co., Ltd. The mice were subcutaneously inoculated with lung squamous cell carcinoma tumor mass (specimen no. 200615, obtained from Xi'an LIDE Biotech Co. Ltd.). When the average tumor volume reached 150 mm^3, the antibody-drug conjugate Ab13-T1000-exatecan as prepared in Example 5 was administered intravenously at a dose of 10 mg/kg, the antibody-drug conjugate h6M24-vc0101 as prepared in Example 8 was administered intravenously at a dose of 5 mg/kg, and a negative control Vehicle group was set and administered intravenously with PBS at an equal dose, once a week for a total of 2 doses. After dosing, the tumor volume was measured twice a week using a vernier caliper and calculated according to the following formula: TV=(length*width^2)/2."}, "OVCAR-3 cells": {"system": "OVCAR-3 cells", "experiment": "In vivo anti-tumor activity against human ovarian cancer cell line OVCAR-3", "conditions": "OVCAR-3 in NCG mice, i.v. 3 mg/kg or 5 mg/kg, 1 dose, vs negative control", "procedure": "6-week-old NCG mice, female, weighing 18-21 g, were purchased from Beijing Vital River Laboratory Animal Technology Co., Ltd. The mice were subcutaneously inoculated with OVCAR-3 cells (Human Ovarian Cancer Cells, ATCC, Catalog No. HTB-161). When the average tumor volume reached 150 mm^3, the antibody-drug conjugates Ab13-T1000-exatecan and h6M24-T1000-exatecan as prepared in Example 5 and the antibody-drug conjugate Ab13-vc0101 and h6M24-vc0101 as prepared in Example 8 were administered intravenously at a dose of 3 mg/kg or 5 mg/kg, respectively, and a negative control Vehicle group was set and administered intravenously with PBS at an equal dose, once a week for a total of 1 dose. After dosing, the tumor volume was measured twice a week using a vernier caliper and calculated according to the following formula: TV=(length*width^2)/2."}, "[3]": {"system": "triple-negative breast cancer PDX LD1-2009-361918", "format": "in vivo", "conditions": "NU/NU mice, i.v. 5 mg/kg, once a week, 2 doses, vs negative control", "experimental": "6-week-old NU/NU mice, female, weighing 18-21 g, were purchased from Beijing Vital River Laboratory Animal Technology Co., Ltd. The mice were subcutaneously inoculated with triple-negative breast cancer tumor mass (specimen no. 361918, obtained from Xi'an LIDE Biotech Co. Ltd.). […] After dosing, the tumor volume was measured twice a week using a vernier caliper and calculated according to the following formula: TV=(length*width^2)/2."}, "[4]": {"system": "esophageal squamous cell carcinoma PDX LD1-2015-361318", "experiment": "In vivo anti-tumor activity against human esophageal squamous cell carcinoma PDX LD1-2015-361318", "conditions": "NU/NU mice, i.v. 5 mg/kg, once a week, 2 doses, vs negative control", "procedure": "as §2, with “esophageal” for “lung”, “361318,” for “200615,”"}, "[5]": {"system": "head and neck squamous cell carcinoma PDX LD1-0023-200615", "experiment": "In vivo anti-tumor activity against human head and neck squamous cell carcinoma PDX LD1-0023-200615", "conditions": "NU/NU mice, i.v. 5 mg/kg, once a week, 2 doses, vs negative control", "procedure": "as §2, with “head and neck” for “lung”"}, "[6]": {"system": "small cell lung cancer PDX LD1-2025-362797", "experiment": "In vivo anti-tumor activity against human small cell lung cancer PDX LD1-2025-362797", "conditions": "NU/NU mice, i.v. 5 mg/kg, 1 dose, vs negative control", "procedure": "6-week-old NU/NU mice, female, weighing 18-21 g, were purchased from Beijing Vital River Laboratory Animal Technology Co., Ltd. The mice were subcutaneously inoculated with small cell lung cancer tumor mass (specimen no. 362797, obtained from Xi'an LIDE Biotech Co. Ltd.). When the average tumor volume reached 150 mm^3, the antibody-drug conjugates Ab13-T1000-exatecan and h6M24-T1000-exatecan as prepared in Example 5 were administered intravenously at a dose of 10 mg/kg, respectively, the antibody-drug conjugate h6M24-vc0101 as prepared in Example 8 was administered intravenously at a dose of 5 mg/kg, and a negative control Vehicle group was set and administered intravenously with PBS at an equal dose, once a week for a total of 1 dose. After dosing, the tumor volume was measured twice a week using a vernier caliper and calculated according to the following formula: TV=(length*width^2)/2."}}}
{"molecule": "h6M24-vc0101: control drug: h6M24 (cofetuzumab) linked to Aur0101 via mc-VC-PAB linker, DAR about 4 (conjugate, chains of the INN, looked up, Aur0101 via mc-VC-PAB linker, DAR 4) VH: QVQLVQSGPEVKKPGASVKVSCKASGYTFTDYAVHWVRQAPGKRLEWIGVISTYNDYTYNNQDFKGRVTMTRDTSASTAYMELSRLRSEDTAVYYCARGNSYFYALDYWGQGTSVTVSS VL: EIVLTQSPATLSLSPGERATLSCRASESVDSYGKSFMHWYQQKPGQAPRLLIYRASNLESGIPARFSGSGSGTDFTLTISSLEPEDFAVYYCQQSNEDPWTFGGGTKLEIK", "values": [{"measurement": "percentage of aggregates", "setting": "[1]", "result": 1.39, "unit": "%"}, {"measurement": "tumor growth inhibition (tumor volume over time)", "setting": "[2]", "result": "partially inhibit tumor growth"}, {"measurement": "tumor growth inhibition (tumor volume over time)", "setting": "OVCAR-3 cells", "result": "less effective in inhibiting tumor growth"}, {"measurement": "tumor growth inhibition (tumor volume over time)", "setting": "[3]", "result": "does not produce any tumor growth inhibitory effect"}, {"measurement": "tumor growth inhibition (tumor volume over time)", "setting": "[4]", "result": "partially inhibit tumor growth"}, {"measurement": "tumor growth inhibition (tumor volume over time)", "setting": "[5]", "result": "significantly inhibit tumor growth"}, {"measurement": "tumor growth inhibition (tumor volume over time)", "setting": "[6]", "result": "does not produce any tumor growth inhibitory effect"}]}
